Measurements reported in patent US20210340273A1 (INHLBRX, published 2021).
Where two headings read alike, the source gives them in different places.

T1: human 5T4 (trophoblast glycoprotein), endogenous on the cell surface (human, UniProt Q13641 32-420)
T1 construct: also called TPBG; 5T4 oncofetal antigen
T1 sequence: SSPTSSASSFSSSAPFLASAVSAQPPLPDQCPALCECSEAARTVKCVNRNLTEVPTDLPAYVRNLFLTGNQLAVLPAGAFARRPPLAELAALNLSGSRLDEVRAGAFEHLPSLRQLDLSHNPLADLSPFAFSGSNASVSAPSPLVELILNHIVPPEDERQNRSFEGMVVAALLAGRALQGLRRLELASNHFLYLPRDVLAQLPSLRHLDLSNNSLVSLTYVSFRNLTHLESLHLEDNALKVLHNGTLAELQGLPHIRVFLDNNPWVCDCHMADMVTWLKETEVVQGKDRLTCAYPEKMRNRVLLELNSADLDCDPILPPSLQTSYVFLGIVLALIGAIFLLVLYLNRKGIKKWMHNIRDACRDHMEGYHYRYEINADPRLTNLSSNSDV


What was measured:
[1] = biological target: T1, human 5T4 (trophoblast glycoprotein), …; test: flow cytometry (FL4H median), sdAb-Fc titrated on 5T4-positive T47D cells
Procedure: (§1) Specificity and relative affinity were assessed for purified sdAb-Fcs on 5T4-expressing cells. Binding of 5T4-sdAb-Fc fusion proteins was assessed by flow cytometry using 5T4-expressing cells. A titration series of the fusion protein was incubated with the 5T4-expressing cell lines (approximately 2.5×10⁴ to 5×10⁴ cells/well) for 30 minutes at 4 degrees Celsius in FACS Buffer (PBS 1% BSA, 0.1% NaN₃ pH 7.4) in 96 well plates. Following three wash steps in FACS buffer, an APC-conjugated anti-human Fcγ specific secondary antibody (Jackson ImmunoResearch) was added and incubated for 30 minutes at 4 degrees Celsius. Following three additional wash steps in FACS buffer bound antibody was detected via flow cytometry (IQue Intellicyte).
(§2) Humanized variant of the 5T4 sdAbs were tested for their ability to bind 5T4 expressing cells substantially as described in Example 2, and binding was compared to the parental sdAb. 5T4 expressing T47D cells were used in these studies. Results are shown in FIGS. 2A-2F, which confirm binding of the humanized variants. In some cases, binding was increased compared to the parental sdAb.

[2] = biological target: T1, human 5T4 (trophoblast glycoprotein), …; test: as above; remark: listed apart in the source
Procedure: as §1, §2

binding result [1] | EC50 (read off the curve) [1] [nM] | Binder | also measured
 | ~2 | hz14B5v8 sdAb-Fc (Fc fusion, Humanized variant of 14B5, linked to a human Fc; not shown: human Fc) EVQLVESGGGEVQPGGSLRLSCAASERPFGTYAMGWFRQAPGKERDLVAAVSRGGGASQYAESVKGRFTISRDNAKNTMYLQMSSLRAEDTAVYYCAARSAAYSRSSEVYTGKDEYYYWGQGTLVTVKP | 
 | ~2 | hz14B5v7 sdAb-Fc (Fc fusion, Humanized variant of 14B5, linked to a human Fc; not shown: human Fc) EVQLVESGGGEVQPGGSLRLSCAASERPFGTYAMGWFRQAPGKERDLVAAVSRQGGASQYAESVKGRFTISRDNAKNTMYLQMSSLRAEDTAVYYCAARSAAYSRSSEVYTGKDEYYYWGQGTLVTVKP | 
 | ~0.2 | hz12E9v3 sdAb-Fc (Fc fusion, Humanized variant of 12E9, linked to a human Fc; not shown: human Fc) EVQLVESGGGEVQPGGSLRLSCAASRRPFSSKTMAWFRQAPGKEREFVAAVRWIGGATRYAESVKGRFTISRDNAKNTVYLQMSSLRAEDTAVYYCAAGQAWGTKFTDYSDWGQGTLVTVKP | 
 | ~2 | hz16G10v1 sdAb-Fc (Fc fusion, Humanized variant of 16G10, linked to a human Fc; not shown: human Fc) EVQLVESGGGEVQPGGSLRLSCAASGRPFSSSAMGWFRQAPGKGRETVSAVSRNGGSSYYAESVKGRFTISRDNAKNTLYLQMSSLRAEDTAVYYCAARSAAYSRSSETYTEKHDYTYWGQGTLVTVKP | 
 | ~5 | hz16G10v5 sdAb-Fc (Fc fusion, Humanized variant of 16G10, linked to a human Fc; not shown: human Fc) EVQLVESGGGEVQPGGSLRLSCAASGRPFSSSAMGWFRQAPGKERETVAAVSRGGGSSYYAESVKGRFTISRDNAKNTVYLQMSSLRAEDTAVYYCAARSAAYSRSSETYTEKHDYTYWGQGTLVTVKP | 
 | ~2 | hz16G10v3 sdAb-Fc (Fc fusion, Humanized variant of 16G10, linked to a human Fc; not shown: human Fc) EVQLVESGGGEVQPGGSLRLSCAASGRPFSSSAMGWFRQAPGKERETVAAVSRNGGSSYYAESVKGRFTISRDNAKNTVYLQMSSLRAEDTAVYYCAARSAAYSRSSETYTEKHDYTYWGQGTLVTVKP | 
 | ~2 | hz16G10v2 sdAb-Fc (Fc fusion, Humanized variant of 16G10, linked to a human Fc; not shown: human Fc) EVQLVESGGGEVQPGGSLRLSCAASGRPFSSSAMGWFRQAPGKERETVAAVSRNGGSSYYAESVKGRFTISRDNAKNTLYLQMSSLRAEDTAVYYCAARSAAYSRSSETYTEKHDYTYWGQGTLVTVKP | 
 | ~9 | hz16G10v4 sdAb-Fc (Fc fusion, Humanized variant of 16G10, linked to a human Fc; not shown: human Fc) EVQLVESGGGEVQPGGSLRLSCAASGRPFSSSAMGWFRQAPGKERETVAAVSRQGGSSYYAESVKGRFTISRDNAKNTVYLQMSSLRAEDTAVYYCAARSAAYSRSSETYTEKHDYTYWGQGTLVTVKP | 

Further lines, the binder ahead of its results:

Binder | binding result [1] | EC50 (read off the curve) [1] [nM] | also measured
hz14B5v4 sdAb-Fc (Fc fusion, Humanized variant of 14B5, linked to a human Fc; not shown: human Fc) EVQLVESGGGEVQPGGSLRLSCAASERPFGTYAMGWFRQAPGKERDLVAAVSRNGGASQYAESVKGRFTISRDNAKNTVYLQMSSLRAEDTAVYYCAARSAAYSRSSEVYTGKDEYYYWGQGTLVTVKP | binds |  | 
hz14B5v11 sdAb-Fc (Fc fusion, Humanized variant of 14B5, linked to a human Fc; also called hz14B511; not shown: human Fc) EVQLVESGGGEVQAGDSLTLSCAVSERPFGTYAMGWFRQAPGRERDLVAAVSRNAGASQYAESVKGRFTISRDNAKNTMYLQMSSLRAEDTAVYYCAARSAAYSRSSEVYTGKDEYYYWGQGTLVTVKP |  |  | EC50 (read off the curve) [2]: ~2 nM
hz14B5v3 sdAb-Fc (Fc fusion, Humanized variant of 14B5, linked to a human Fc; not shown: human Fc) EVQLVESGGGEVQPGGSLRLSCAASERPFGTYAMGWFRQAPGKERDLVAAVSRNGGASQYAESVKGRFTISRDNAKNTMYLQMSSLRAEDTAVYYCAARSAAYSRSSEVYTGKDEYYYWGQGTLVTVKP | binds |  | 
hz14B5v10 sdAb-Fc (Fc fusion, Humanized variant of 14B5, linked to a human Fc; also called hz14B510; not shown: human Fc) EVQLVESGGGEVQPGGSLRLSCAASERPFGTYAMGWFRQAPGKERDLVAAVSRNGGASQYGESVKGRFTISRDNAKNTMYLQMSSLRAEDTAVYYCAARSAAYSRSSEVYTGKDEYYYWGQGTLVTVKP | binds |  | 
hz14B5v14 sdAb-Fc (Fc fusion, Humanized variant of 14B5, linked to a human Fc; not shown: human Fc) EVQLVESGGGEVQPGGSLRLSCAASERPFGTYAMGWFRQAPGKEREFVAAVSRNAGASQYAESVKGRFTISRDNAKNTMYLQMSSLRAEDTAVYYCAARSAAYSRSSEVYTGKDEYYYWGQGTLVTVKP |  |  | EC50 (read off the curve) [2]: ~2 nM
hz14B5v9 sdAb-Fc (Fc fusion, Humanized variant of 14B5, linked to a human Fc; not shown: human Fc) EVQLVESGGGEVQPGGSLRLSCAASERPFGTYAMGWFRQAPGKERDLVAAVSRNGGASQYGDSVKGRFTISRDNAKNTMYLQMSSLRAEDTAVYYCAARSAAYSRSSEVYTGKDEYYYWGQGTLVTVKP | binds |  | 
hz14B5v5 sdAb-Fc (Fc fusion, Humanized variant of 14B5, linked to a human Fc; not shown: human Fc) EVQLVESGGGEVQPGGSLRLSCAASERPFGTYAMGWFRQAPGKERDLVAAVSRNAGASQYAESVKGRFTISRDNAKNTMYLQMSSLRAEDTAVYYCAARSAAYSRSSEVYTGKDEYYYWGQGTLVTVKP | binds |  | 
hz14B5v13 sdAb-Fc (Fc fusion, Humanized variant of 14B5, linked to a human Fc; not shown: human Fc) EVQLVESGGGEVQPGGSLRLSCAASERPFGTYAMGWFRQAPGKERETVAAVSRNAGASQYAESVKGRFTISRDNAKNTMYLQMSSLRAEDTAVYYCAARSAAYSRSSEVYTGKDEYYYWGQGTLVTVKP |  |  | EC50 (read off the curve) [2]: ~2 nM
hz14B5v1 sdAb-Fc (Fc fusion, Humanized variant of 14B5, linked to a human Fc; not shown: human Fc) EVQLVESGGGEVQPGGSLRLSCAASERPFGTYAMGWFRQAPGKGRDLVSAVSRNGGASQYAESVKGRFTISRDNAKNTLYLQMSSLRAEDTAVYYCAARSAAYSRSSEVYTGKDEYYYWGQGTLVTVKP | binds |  | 
hz14B5v15 sdAb-Fc (Fc fusion, Humanized variant of 14B5, linked to a human Fc; not shown: human Fc) EVQLVESGGGEVQPGGSLRLSCAASERPFGTYAMGWFRQAPGKERDLVAAVSRNAGASYYAESVKGRFTISRDNAKNTMYLQMSSLRAEDTAVYYCAARSAAYSRSSEVYTGKDEYYYWGQGTLVTVKP |  |  | EC50 (read off the curve) [2]: ~2 nM
hz14B5v12 sdAb-Fc (Fc fusion, Humanized variant of 14B5, linked to a human Fc; not shown: human Fc) EVQLVESGGGEVQPGGSLRLSCAASERPFGTYAMGWFRQAPGKERDLVAAVSRNAGASQYGESVKGRFSISRDNIKNTMYLQMSSLKPEDTAVYYCAARSAAYSRSSEVYTGKDEYYYWGQGTLVTVKP |  |  | EC50 (read off the curve) [2]: ~2 nM
hz14B5v6 sdAb-Fc (Fc fusion, Humanized variant of 14B5, linked to a human Fc; not shown: human Fc) EVQLVESGGGEVQPGGSLRLSCAASERPFGTYAMGWFRQAPGKERDLVAAVSRNTGASQYAESVKGRFTISRDNAKNTMYLQMSSLRAEDTAVYYCAARSAAYSRSSEVYTGKDEYYYWGQGTLVTVKP | binds |  | 
hz12E9v4 sdAb-Fc (Fc fusion, Humanized variant of 12E9, linked to a human Fc; not shown: human Fc) EVQLVESGGGEVQPGGSLRLSCAASRRPFSSKTMAWFRQAPGKEREFVAAVRWIGGATRYTESVKGRFTISRDNAKNTVYLQMSSLRAEDTAVYYCAAGQAWGTKFTDYSDWGQGTLVTVKP |  | ~0.2 | 
hz12E9v6 sdAb-Fc (Fc fusion, Humanized variant of 12E9, linked to a human Fc; not shown: human Fc) EVQLVESGGGEVQAGGSLRLSCAASRRPFSSKTMAWFRQTPGKEREFVAAVRWIGGATRYAESVKGRFTISRDNAKNTVYLQMSSLRAEDTAVYYCAAGQAWGTKFTDYSDWGQGTLVTVKP | binds |  | 
hz12E9v1 sdAb-Fc (Fc fusion, Humanized variant of 12E9, linked to a human Fc; not shown: human Fc) EVQLVESGGGEVQPGGSLRLSCAASRRPFSSKTMAWFRQAPGKGREFVAAVRWIGGATRYAESVKGRFTISRDNAKNTLYLQMSSLRAEDTAVYYCAAGQAWGTKFTDYSDWGQGTLVTVKP | binds |  | 
hz12E9v2 sdAb-Fc (Fc fusion, Humanized variant of 12E9, linked to a human Fc; not shown: human Fc) EVQLVESGGGEVQPGGSLRLSCAASRRPFSSKTMAWFRQAPGKEREFVAAVRWIGGATRYAESVKGRFTISRDNAKNTLYLQMSSLRAEDTAVYYCAAGQAWGTKFTDYSDWGQGTLVTVKP |  | ~0.2 | 
hz16G10v9 sdAb-Fc (Fc fusion, Humanized variant of 16G10, linked to a human Fc; not shown: human Fc) EVQLVESGGGEVQPGGSLRLSCAASGRPFSSSAMGWFRQAPGKERETVAAVSRNGGSSYYAESVKGRFTISRDNDKNTVYLQMSSLRAEDTAVYYCAARSAAYSRSSETYTEKHDYTYWGQGTLVTVKP | binds |  | 
hz16G10v6 sdAb-Fc (Fc fusion, Humanized variant of 16G10, linked to a human Fc; not shown: human Fc) EVQLVESGGGEVQPGGSLRLSCAASGRPFSSSAMGWFRQAPGKERETVAAVSRNAGSSYYAESVKGRFTISRDNAKNTVYLQMSSLRAEDTAVYYCAARSAAYSRSSETYTEKHDYTYWGQGTLVTVKP | binds |  | 
hz16G10v8 sdAb-Fc (Fc fusion, Humanized variant of 16G10, linked to a human Fc; not shown: human Fc) EVQLVESGGGEVQPGGSLRLSCAASGRPFSSSAMGWFRQAPGKERETVAAVSRNGGSSYYADFVKGRFTISRDNAKNTVYLQMSSLRAEDTAVYYCAARSAAYSRSSETYTEKHDYTYWGQGTLVTVKP | binds |  | 
